We go through 1 substance from patent US20220056123A1, “USE OF IL-1BETA BINDING ANTIBODIES” (NOVARTIS AG, priority 2018, published 2022).

Data set [1] is described as follows: CANTOS immunogenicity, bridging ECLIA for anti-drug antibodies. It counts as in vivo, human. How it is done:
During the CANTOS trial, blood samples for immunogenicity assessments were collected at baseline Month 12, 24 and end of study visit. Immunogenicity was analyzed using a bridging immunogenicity electrochemiluminescence immunoassay (ECLIA). Samples were pre-treated with acetic acid and neutralized in buffer containing labeled drug (biotinylated ACZ885 and sulfo-TAG (Ruthenium) labeled ACZ885). Anti-canakinumab antibodies (anti-drug antibodies) were captured by a combination of biotinylated and sulfo-TAG labeled forms of ACZ885. Complex formation was subsequently detected by electrochemiluminescence by capturing complexes on Mesoscale Discovery Streptavidin (MSD) plates.

Data set [2] concerns locally advanced or metastatic non-small cell lung cancer. Further details: species or system human. Particulars: in vivo. From the text:
A Randomized, Double-Blind Phase III Study of Pembrolizumab+Platinum-based Chemotherapy with or without Canakinumab as First Line Therapy for Locally Advanced or Metastatic Non-squamous and Squamous Non-small Cell Lung Cancer Subjects The study population includes adult patients with first-line locally advanced stage IIIB (not eligible for definitive chemo-radiation therapy) or stage IV metastatic non-small cell lung cancer (NSCLC), without EGFR mutations or ALK translocation. Only patients who have not previously been treated with any systemic anti-cancer therapy are included, with the exception of neo-adjuvant or adjuvant therapy (if relapse has occurred more than 12 months from the end of that therapy). In addition, subjects should be without known B-RAF mutation or ROS-1 genetic aberrations.
The non-randomized safety run-in portion of the study will be done with canakinumab in combination with pembrolizumab and three platinum-based doublet chemotherapies: carboplatin+pemetrexed (patients with non-squamous tumors), cisplatin+pemetrexed (patients with non-squamous tumors), and carboplatin+paclitaxel (patients with either squamous or non-squamous tumor). Non-squamous tumor histology subjects who receive paclitaxel-carboplatin with pembrolizumab in the safety-run-in and achieve stable disease (SD) or better will receive pemetrexed maintenance after completing induction. […] The secondary objectives are to characterize safety and tolerability, pharmacokinetics, immunogenicity, and to assess the preliminary clinical anti-tumor activity. The analysis to determine the recommended phase III dose regimen (RP3R) will be conducted when at least 6 evaluable patients in each of the 3 treatment cohorts have been observed for dose limiting toxicity (DLT) for at least 42 days at the starting dose level to establish the RP3R.
At data cut-off, 6 patients (3 in A, 2 in B and 1 in C) of the 30 treated patients, discontinued the study treatment. The primary reason for treatment discontinuation was PD (3 patients in A and 1 patient each in B and C)

“canakinumab: high-affinity, fully human monoclonal antibody of the IgG1/k to interleukin-1β”: the “patients with treatment-emergent anti-canakinumab antibodies” value in data set [1] (canakinumab 150 mg group) came out at 0.4%. The “patients with treatment-emergent anti-canakinumab antibodies” value in data set [1] (canakinumab 300 mg group) is 0.3%. Also, the “association of anti-drug antibodies with AEs or hsCRP response” value in data set [1] (in vivo) is recorded as “not associated with immunogenicity related AEs or altered hsCRP response”. Moreover, in data set [2], the “AEs leading to discontinuation of one of the study drugs” value was found to be 3 patients, the “AEs leading to dose interruption: decreased neutrophil count” value was determined as 3 patients, the “AEs leading to dose interruption: decreased white blood cell count” value is 1 patient and the “AEs leading to dose interruption: neutropenia” value is 1 patient. In data set [2], the “AEs leading to dose reduction: myalgia” value was 1 patients, the “AEs leading to dose reduction: peripheral neuropathy” value is on record as 2 patients, the “Grade 5 adverse events” value is recorded as “No Grade 5 adverse events were observed” and the “patients with dose limiting toxicity (DLT)” value is on record as 1 patient. Further, in data set [2], the “patients with grade 3 AEs” value came to 13 patients and the “patients with grade 4 AE” value is 1 patient.
